Patent US20180030149A1

Target: recombinant human ErbB3 monomeric protein (cleaved rhErbB3) (human) (UniProt P21860)
Experiment: SPR Biacore 37 C; antibody captured on anti-human Fc, cleaved rhErbB3 (monomer) injected

Kd: 530 pM
Substance: U1-59 (antibody)
